Assays:
[1] = biological target: T1, DNA polymerase iota catalytic core (UniProt Q9UNA4 26-443); experiment: time-lapse X-ray crystallography
T1 sequence: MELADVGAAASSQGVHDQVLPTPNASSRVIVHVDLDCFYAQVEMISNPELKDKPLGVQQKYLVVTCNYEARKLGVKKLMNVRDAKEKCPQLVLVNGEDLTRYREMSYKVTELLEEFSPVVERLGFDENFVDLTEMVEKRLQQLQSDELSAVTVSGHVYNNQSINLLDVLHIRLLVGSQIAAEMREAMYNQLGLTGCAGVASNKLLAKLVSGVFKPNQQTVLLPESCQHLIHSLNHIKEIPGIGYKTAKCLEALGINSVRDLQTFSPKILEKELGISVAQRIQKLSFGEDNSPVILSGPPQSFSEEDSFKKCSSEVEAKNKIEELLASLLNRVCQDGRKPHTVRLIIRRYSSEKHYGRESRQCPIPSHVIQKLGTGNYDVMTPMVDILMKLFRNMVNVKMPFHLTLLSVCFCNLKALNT

[2] = biological target: T1, DNA polymerase iota catalytic core; experiment: X-ray crystallography
[3] = biological target: T1, DNA polymerase iota catalytic core; experiment: X-ray crystallography; remark: listed apart in the source
[4] = biological target: T1, DNA polymerase iota catalytic core; experiment: X-ray crystallography; remark: listed apart in the source

B1: product DNA formed in crystallo from 18-mer plus dTTP (dsDNA)
DNA 1: TCAAGGGTCCTAGGACCCT
DNA 2: TCAAGGGTCCTAGGACCCT
- binding result [1]: binds

B2: self-annealed 19-mer product DNA (pre-translocation) (dsDNA)
DNA 1: TCAAGGGTCCTAGGACCCT
DNA 2: TCAAGGGTCCTAGGACCCT
- binding result [2]: binds

B3: self-annealed 17-mer product DNA (post-translocation) (dsDNA)
DNA 1: TCAAGGGTCCGGACCCT
DNA 2: TCAAGGGTCCGGACCCT
- binding result [3]: binds

B4: self-annealed 18-mer substrate DNA, template A (dsDNA)
DNA 1: TCAAGGGTCCTAGGACCC
DNA 2: TCAAGGGTCCTAGGACCC
- binding result [4]: binds

Source: article PMC12214486
